EC50 and Kd data for five molecules are collected here from patent publication US20250129148A1 (ONCOONE RESEARCH AND DEVELOPMENT, published 2025).

Experiment [1] concerns the target T1, oxMIF (recombinant human MIF immobilized into ELISA plates, transforming MIF to oxMIF) (human, UniProt P14174 2-115).
T1 construct: Oxidised conformational isoform produced by coating the plate at 1 ug/ml in PBS overnight; also called immobilized MIF (oxMIF); immobilized oxMIF
In words: ELISA on immobilized MIF (oxMIF), 4-parameter fit. How it is done:
(§1) Recombinant human MIF diluted in PBS at 1 μg/ml was immobilized into ELISA plates overnight at 4° C. (transforming MIF to oxMIF according to Thiele et al., 2015). After blocking, serial dilutions of anti-oxMIF antibodies were added to the plates. Finally, bound antibodies were detected using a Goat anti-human IgG (Fc)-HRP conjugate and tetramethylbenzidine (TMB) as substrate. The chromogenic reaction was stopped with 3M H₂SO₄ and OD was measured at 450 nm. Data from different experiments were normalized to the maximal OD of the anti-oxMIF antibody C0008 (=100%) of the respective experiment and EC₅₀ values were determined by 4-parameter fit using GraphPad Prism (and the mean+/−SEM of two experiments is shown).
Materials and Methods: Recombinant human MIF diluted in PBS at 1 μg/ml was immobilized into ELISA plates overnight at 4° C. (transforming MIF to oxMIF according to Thiele et al., 2015). After blocking, serial dilutions of antibodies were added to the plates, and ELISA was performed as described in the Example 3.

In experiment [2] the target is T1, oxMIF (recombinant human MIF …). Put plainly: ELISA on immobilized MIF (oxMIF); EC50 of 4-parameter fit given as apparent KD. Here is the method: as §1
Anti-oxMIF antibodies were detected by an anti-human-IgG (Fc)-HRP conjugate, C0008 was used as reference antibody. EC₅₀ values were determined by sigmoidal, 4-parameter equation using GraphPad Prism (mean+/−SEM of two experiments is shown)
Background: In an ELISA, binding on a coated surface is turned into a signal by an enzyme label.

Changes are numbered by the printed parent chain.

T1 sequence (P14174 2-115 limits assumed): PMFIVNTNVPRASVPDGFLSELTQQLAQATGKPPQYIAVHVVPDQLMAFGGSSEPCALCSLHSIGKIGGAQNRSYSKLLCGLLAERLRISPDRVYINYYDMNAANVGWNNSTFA

B1: C0008 (control/reference anti-oxMIF antibody) (antibody, human IgG1, kappa, V domains shown)
VH: EVQLLESGGGLVQPGGSLRLSCAASGFTFSIYSMNWVRQAPGKGLEWVSSIGSSGGTTYYADSVKGRFTISRDNSKNTLYLQMNSLRAEDTAVYYCAGSQWLYGMDVWGQGTTVTVSS
VL: DIQMTQSPSSLSASVGDRVTITCRSSQRIMTYLNWYQQKPGKAPKLLIFVASHSQSGVPSRFRGSGSETDFTLTISGLQPEDSATYYCQQSFWTPLTFGGGTKVEIKR
notes: Human IgG1 with wt Fc; also called control antibody
For B1, in experiment [1], the EC50 worked out at 0.158 nM. Moreover, the Kd in experiment [2] is 0.19 nM.

B2: C0115 (Fc silenced anti-oxMIF antibody) (antibody, human IgG1, kappa, L234A L235A, V domains shown)
VH: B1 VH with L5Q, W101Y
VL: B1 VL with F49Y, A51G, W93F
Regarding B2, the Kd in experiment [2] worked out at 0.28 nM.

B3: C0118 (Fc silenced anti-oxMIF antibody) (antibody, human IgG1, kappa, L234A L235A, V domains shown)
VH: B1 VH with L5Q, W101Y
VL: B1 VL with M30L, F49Y, A51G, P80S, W93F
For the molecule B3, the Kd in experiment [2] came to 0.26 nM.

B4: C0132 (Fc silenced anti-oxMIF x anti-HSG bispecific antibody, Fab/scFv-Fc) (bispecific antibody, human IgG1, kappa, L234A L235A)
heavy: not shown
chain: EVQLVESGGDLVKPGGSLKLSCAASGFTFSIYTMSWLRQTPGKGLEWVATLSGDGDDIYYPDSVKGRFTISRDNAKNSLYLQMNSLRAEDTALYYCARVRLGDWDFDVWGQGTTVSVSSGGSGGSGGSGGSGGSDIVMTQSPSSLAVSPGERVTLTCKSSQSLFNSRTRKNYLGWYQQKPGQSPKLLIYWASTRESGVPDRFSGSGSGTDFTLTINSLQAEDVAVYYCTQVYYLCTFGAGTKLELKGGGGSDKTHTCPPCPAPEAAGGPSVFLFPPKPKDTLMISRTPEVTCVVVDVSHEDPEVKFNWYVDGVEVHNAKTKPREEQYNSTYRVVSVLTVLHQDWLNGKEYKCKVSNKALPAPIEKTISKAKGQPREPQVCTLPPSRDELTKNQVSLSCAVKGFYPSDIAVEWESNGQPENNYKTTPPVLDSDGSFFLVSKLTVDKSRWQQGNVFSCSVMHEALHNHYTQKSLSLSPG
light: DIQMTQSPSSLSASVGDRVTITCRSSQRIMTYLNWYQQKPGKAPKLLIYVGSHSQSGVPSRFRGSGSETDFTLTISGLQPEDSATYYCQQSFFTPLTFGGGTKVEIKRTVAAPSVFIFPPSDEQLKSGTASVVCLLNNFYPREAKVQWKVDNALQSGNSQESVTEQDSKDSTYSLSSTLTLSKADYEKHKVYACEVTHQGLSSPVTKSFNRGEC
notes: One anti-oxMIF arm only; also called bsMab C0132
As for B4, the EC50 in experiment [1] turned out to be 2.51 nM.

B5: C0133 (Fc silenced anti-oxMIF x anti-HSG bispecific antibody, Fab/Fab-scFv-Fc) (bispecific antibody, human IgG1, kappa, L234A L235A)
heavy: not shown
chain: EVQLQESGGGLVQPGGSLRLSCAASGFTFSIYSMNWVRQAPGKGLEWVSSIGSSGGTTYYADSVKGRFTISRDNSKNTLYLQMNSLRAEDTAVYYCAGSQYLYGMDVWGQGTTVTVSSASTKGPSVFPLAPSSKSTSGGTAALGCLVKDYFPEPVTVSWNSGALTSGVHTFPAVLQSSGLYSLSSVVTVPSSSLGTQTYICNVNHKPSNTKVDKKVEPKSCGGGGSGGGGSEVQLVESGGDLVKPGGSLKLSCAASGFTFSIYTMSWLRQTPGKGLEWVATLSGDGDDIYYPDSVKGRFTISRDNAKNSLYLQMNSLRAEDTALYYCARVRLGDWDFDVWGQGTTVSVSSGGSGGSGGSGGSGGSDIVMTQSPSSLAVSPGERVTLTCKSSQSLFNSRTRKNYLGWYQQKPGQSPKLLIYWASTRESGVPDRFSGSGSGTDFTLTINSLQAEDVAVYYCTQVYYLCTFGAGTKLELKGGGGSGGGGSKTHTCPPCPAPEAAGGPSVFLFPPKPKDTLMISRTPEVTCVVVDVSHEDPEVKFNWYVDGVEVHNAKTKPREEQYNSTYRVVSVLTVLHQDWLNGKEYKCKVSNKALPAPIEKTISKAKGQPREPQVCTLPPSRDELTKNQVSLSCAVKGFYPSDIAVEWESNGQPENNYKTTPPVLDSDGSFFLVSKLTVDKSRWQQGNVFSCSVMHEALHNHYTQKSLSLSPG
light: B4 light
notes: also called bsMab C0133
For the molecule B5, the EC50 in experiment [1] amounted to 0.242 nM.

The term EC50 denotes the midpoint of the concentration-response curve.
